In patent US20100260668A1 (published 2010):

T1: PlGF (UniProt P49763-2 21-149, limits assumed)
T1 construct: Bought antigen coated on the ELISA plate; also called Placental GF; placental growth factor
T1 sequence (looked up): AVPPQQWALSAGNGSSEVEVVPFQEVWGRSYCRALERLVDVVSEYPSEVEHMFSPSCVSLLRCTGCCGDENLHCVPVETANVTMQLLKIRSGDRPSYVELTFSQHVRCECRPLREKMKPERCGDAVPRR

B1: DVD591 (bispecific antibody, human IgG1, kappa)
heavy: not shown
light: DIVLTQSPDSLAVSLGERVTMNCKSSQSLLNSGMRKSFLAWYQQKPGQSPKLLIYWASTRESGVPDRFTGSGSGTDFTLTISSVQAEDVAVYYCKQSYHLFTFGSGTKLEIKRTVAAPDIQMTQSPSSLSASVGDRVTITCRASQVIRRSLAWYQQKPGKAPKLLIYAASNLASGVPSRFSGSGSGTDFTLTISSLQPEDFATYYCQQSNTSPLTFGQGTKVEIKRTVAAPSVFIFPPSDEQLKSGTASVVCLLNNFYPREAKVQWKVDNALQSGNSQESVTEQDSKDSTYSLSSTLTLSKADYEKHKVYACEVTHQGLSSPVTKSFNRGEC
notes: DVD-Ig, N-terminal PlGF (AB047), C-terminal VEGF (AB071); HC linker long, LC linker short; also called DVD591VH; DVD591VL
B2: DVD597 (bispecific antibody, human IgG1, kappa)
heavy: not shown
light: DIVLTQSPDSLAVSLGERVTMNCKSSQSLLNSGMRKSFLAWYQQKPGQSPKLLIYWASTRESGVPDRFTGSGSGTDFTLTISSVQAEDVAVYYCKQSYHLFTFGSGTKLEIKRTVAAPSVFIFPPDIQMTQSPSSLSASVGDRVTITCRASQDVSTAVAWYQQKPGKAPKLLIYSASFLYSGVPSRFSGSGSGTDFTLTISSLQPEDFATYYCQQSYTTPPTFGQGTKVEIKRTVAAPSVFIFPPSDEQLKSGTASVVCLLNNFYPREAKVQWKVDNALQSGNSQESVTEQDSKDSTYSLSSTLTLSKADYEKHKVYACEVTHQGLSSPVTKSFNRGEC
notes: HC linker short, LC linker long; also called DVD597VH; DVD597VL
B3: DVD589 (bispecific antibody, human IgG1, kappa)
heavy: not shown
light: DIVLTQSPDSLAVSLGERVTMNCKSSQSLLNSGMRKSFLAWYQQKPGQSPKLLIYWASTRESGVPDRFTGSGSGTDFTLTISSVQAEDVAVYYCKQSYHLFTFGSGTKLEIKRTVAAPDIQMTQSPSSLSASVGDRVTITCRASQDVSTAVAWYQQKPGKAPKLLIYSASFLYSGVPSRFSGSGSGTDFTLTISSLQPEDFATYYCQQSYTTPPTFGQGTKVEIKRTVAAPSVFIFPPSDEQLKSGTASVVCLLNNFYPREAKVQWKVDNALQSGNSQESVTEQDSKDSTYSLSSTLTLSKADYEKHKVYACEVTHQGLSSPVTKSFNRGEC
notes: HC linker long, LC linker short; also called DVD589VH; DVD589VL
B4: DVD599 (bispecific antibody, human IgG1, kappa)
heavy: not shown
light: DIVLTQSPDSLAVSLGERVTMNCKSSQSLLNSGMRKSFLAWYQQKPGQSPKLLIYWASTRESGVPDRFTGSGSGTDFTLTISSVQAEDVAVYYCKQSYHLFTFGSGTKLEIKRTVAAPSVFIFPPDIQMTQSPSSLSASVGDRVTITCRASQVIRRSLAWYQQKPGKAPKLLIYAASNLASGVPSRFSGSGSGTDFTLTISSLQPEDFATYYCQQSNTSPLTFGQGTKVEIKRTVAAPSVFIFPPSDEQLKSGTASVVCLLNNFYPREAKVQWKVDNALQSGNSQESVTEQDSKDSTYSLSSTLTLSKADYEKHKVYACEVTHQGLSSPVTKSFNRGEC
notes: DVD-Ig, N-terminal PlGF (AB047), C-terminal VEGF (AB071); HC linker short, LC linker long; also called DVD599VH; DVD599VL
B5: DVD445 (bispecific antibody, human IgG1, kappa)
heavy: not shown
light: DIVMTQSPDSLAVSLGERATISCRASESVDNYGISFMKWFQQKPGQPPKLLIYAASNQGSGVPDRFSGSGSGTDFTLTISSLQAEDVAVYYCQQSKEVPWTFGGGTKVEIKRTVAAPDIQMTQSPSSLSASVGDRVTITCRASQVIRRSLAWYQQKPGKAPKLLIYAASNLASGVPSRFSGSGSGTDFTLTISSLQPEDFATYYCQQSNTSPLTFGQGTKVEIKRTVAAPSVFIFPPSDEQLKSGTASVVCLLNNFYPREAKVQWKVDNALQSGNSQESVTEQDSKDSTYSLSSTLTLSKADYEKHKVYACEVTHQGLSSPVTKSFNRGEC
notes: DVD-Ig; outer AB069 (DLL4), inner AB071 (VEGF); HC short, LC short linker; also called DVD445H; DVD445L
B6: DVD491 (bispecific antibody, human IgG1, kappa)
heavy: not shown
light: DIQMTQSSSYLSVSLGGRVTITCKASDHINNWLAWYQQKPGNAPRLLISGATSLETGVPSRFSGSGSGKDYTLSITSLQTEDVATYYCQQYWSIPLTFGAGTKLELKRTVAAPDIQMTQSPSSLSASVGDRVTITCRASQVIRRSLAWYQQKPGKAPKLLIYAASNLASGVPSRFSGSGSGTDFTLTISSLQPEDFATYYCQQSNTSPLTFGQGTKVEIKRTVAAPSVFIFPPSDEQLKSGTASVVCLLNNFYPREAKVQWKVDNALQSGNSQESVTEQDSKDSTYSLSSTLTLSKADYEKHKVYACEVTHQGLSSPVTKSFNRGEC
notes: DVD-Ig; outer AB072 (DLL4), inner AB071 (VEGF); HC short, LC short linker; also called DVD491H; DVD491L
B7: DVD467 (bispecific antibody, human IgG1, kappa)
heavy: not shown
light: DIQMTQSPSSLSASVGDRVTITCRASQDVSTAVAWYQQKPGKAPKLLIYSASFLYSGVPSRFSGSGSGTDFTLTISSLQPEDFATTYYCQQSYTGTVTFGQGTKVEIKRTVAAPDIQMTQSPSSLSASVGDRVTITCRASQVIRRSLAWYQQKPGKAPKLLIYAASNLASGVPSRFSGSGSGTDFTLTISSLQPEDFATYYCQQSNTSPLTFGQGTKVEIKRTVAAPSVFIFPPSDEQLKSGTASVVCLLNNFYPREAKVQWKVDNALQSGNSQESVTEQDSKDSTYSLSSTLTLSKADYEKHKVYACEVTHQGLSSPVTKSFNRGEC
notes: DVD-Ig; outer AB015 (DLL4), inner AB071 (VEGF); HC short, LC short linker; also called DVD467H; DVD467L
B8: DVD515 (bispecific antibody, human IgG1, kappa)
heavy: not shown
light: QAVVTQESALTTSPGETVTLTCRSSTGAVTTSNYANWVQEKPDHLFTGLIGGTNNRAPGVPARFSGSLIGDKAALTITGAQTEDEAIYFCALWYSNHWVFGGGTKLTVLGQPKAAPDIQMTQSPSSLSASVGDRVTITCRASQVIRRSLAWYQQKPGKAPKLLIYAASNLASGVPSRFSGSGSGTDFTLTISSLQPEDFATYYCQQSNTSPLTFGQGTKVEIKRTVAAPSVFIFPPSDEQLKSGTASVVCLLNNFYPREAKVQWKVDNALQSGNSQESVTEQDSKDSTYSLSSTLTLSKADYEKHKVYACEVTHQGLSSPVTKSFNRGEC
notes: DVD-Ig; outer AB073 (DLL4), inner AB071 (VEGF); HC short, LC short linker; also called DVD515H; DVD515L
B9: DVD471 (DLL4 (seq. 1) N-terminal / VEGF (AB070) C-terminal DVD-Ig, long HC linker, long LC linker) (bispecific antibody, human IgG1, kappa, L234A L235A)
heavy: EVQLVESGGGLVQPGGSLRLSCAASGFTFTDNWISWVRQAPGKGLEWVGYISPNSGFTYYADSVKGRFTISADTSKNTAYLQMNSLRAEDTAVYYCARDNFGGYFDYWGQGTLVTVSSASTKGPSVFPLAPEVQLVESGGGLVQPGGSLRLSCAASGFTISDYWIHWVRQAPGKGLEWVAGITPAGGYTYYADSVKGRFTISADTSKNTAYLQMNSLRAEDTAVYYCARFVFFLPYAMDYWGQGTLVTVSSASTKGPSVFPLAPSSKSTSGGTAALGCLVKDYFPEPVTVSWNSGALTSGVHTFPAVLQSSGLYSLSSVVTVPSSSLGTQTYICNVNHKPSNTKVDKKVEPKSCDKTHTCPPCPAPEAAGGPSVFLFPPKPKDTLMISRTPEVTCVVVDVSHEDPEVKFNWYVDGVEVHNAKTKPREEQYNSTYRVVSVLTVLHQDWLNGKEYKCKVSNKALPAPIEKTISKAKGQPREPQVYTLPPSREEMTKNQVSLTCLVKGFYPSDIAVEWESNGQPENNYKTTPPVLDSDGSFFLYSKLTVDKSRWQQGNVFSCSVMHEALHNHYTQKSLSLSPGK
light: DIQMTQSPSSLSASVGDRVTITCRASQDVSTAVAWYQQKPGKAPKLLIYSASFLYSGVPSRFSGSGSGTDFTLTISSLQPEDFATTYYCQQSYTGTVTFGQGTKVEIKRTVAAPSVFIFPPDIQMTQSPSSLSASVGDRVTITCRASQDVSTAVAWYQQKPGKAPKLLIYSASFLYSGVPSRFSGSGSGTDFTLTISSLQPEDFATYYCQQSYTTPPTFGQGTKVEIKRTVAAPSVFIFPPSDEQLKSGTASVVCLLNNFYPREAKVQWKVDNALQSGNSQESVTEQDSKDSTYSLSSTLTLSKADYEKHKVYACEVTHQGLSSPVTKSFNRGEC
notes: also called DVD471H/DVD471L
B10: DVD476 (VEGF (seq. 1) N-terminal / DLL4 (seq. 1) C-terminal DVD-Ig, long HC linker, short LC linker) (bispecific antibody, human IgG1, kappa)
heavy: not shown
light: DIQMTQSPSSLSASVGDRVTITCSASQDISNYLNWYQQKPGKAPKVLIYFTSSLHSGVPSRFSGSGSGTDFTLTISSLQPEDFATYYCQQYSTVPWTFGQGTKVEIKRTVAAPDIQMTQSPSSLSASVGDRVTITCRASQDVSTAVAWYQQKPGKAPKLLIYSASFLYSGVPSRFSGSGSGTDFTLTISSLQPEDFATTYYCQQSYTGTVTFGQGTKVEIKRTVAAPSVFIFPPSDEQLKSGTASVVCLLNNFYPREAKVQWKVDNALQSGNSQESVTEQDSKDSTYSLSSTLTLSKADYEKHKVYACEVTHQGLSSPVTKSFNRGEC
notes: also called DVD476H/DVD476L
B11: DVD470 (VEGF (seq. 1) N-terminal / DLL4 (seq. 1) C-terminal DVD-Ig, long HC linker, long LC linker) (bispecific antibody, human IgG1, kappa)
heavy: not shown
light: DIQMTQSPSSLSASVGDRVTITCSASQDISNYLNWYQQKPGKAPKVLIYFTSSLHSGVPSRFSGSGSGTDFTLTISSLQPEDFATYYCQQYSTVPWTFGQGTKVEIKRTVAAPSVFIFPPDIQMTQSPSSLSASVGDRVTITCRASQDVSTAVAWYQQKPGKAPKLLIYSASFLYSGVPSRFSGSGSGTDFTLTISSLQPEDFATTYYCQQSYTGTVTFGQGTKVEIKRTVAAPSVFIFPPSDEQLKSGTASVVCLLNNFYPREAKVQWKVDNALQSGNSQESVTEQDSKDSTYSLSSTLTLSKADYEKHKVYACEVTHQGLSSPVTKSFNRGEC
notes: also called DVD470H/DVD470L
B12: DVD482 (VEGF (seq. 1) N-terminal / DLL4 (seq. 1) C-terminal DVD-Ig, short HC linker, long LC linker) (bispecific antibody, human IgG1, kappa)
heavy: not shown
light: B11 light
notes: also called DVD482H/DVD482L
B13: DVD474 (bispecific antibody, human IgG1, kappa)
heavy: not shown
light: DIQMTQSPSSLSASVGDRVTITCRASQVIRRSLAWYQQKPGKAPKLLIYAASNLASGVPSRFSGSGSGTDFTLTISSLQPEDFATYYCQQSNTSPLTFGQGTKVEIKRTVAAPSVFIFPPDIQMTQSPSSLSASVGDRVTITCRASQDVSTAVAWYQQKPGKAPKLLIYSASFLYSGVPSRFSGSGSGTDFTLTISSLQPEDFATTYYCQQSYTGTVTFGQGTKVEIKRTVAAPSVFIFPPSDEQLKSGTASVVCLLNNFYPREAKVQWKVDNALQSGNSQESVTEQDSKDSTYSLSSTLTLSKADYEKHKVYACEVTHQGLSSPVTKSFNRGEC
notes: DVD-Ig; outer AB071 (VEGF), inner AB015 (DLL4); also called VEGF and DLL4 DVD-Ig, HC linker long, LC linker long
B14: DVD486 (bispecific antibody, human IgG1, kappa)
heavy: not shown
light: B13 light
notes: DVD-Ig; outer AB071 (VEGF), inner AB015 (DLL4); also called VEGF and DLL4 DVD-Ig, HC linker short, LC linker long

The binders below were run against T1, PlGF (assay: direct bind ELISA, antigen on plate; N-terminal VD).
Method: (§1) Enzyme Linked Immunosorbent Assays to screen for antibodies that bind a desired target antigen were performed as follows. […] Plates were washed four times with PBS containing 0.02% Tween 20. Plates were blocked by the addition of 300 μL/well blocking solution (non-fat dry milk powder, various retail suppliers, diluted to 2% in PBS) for ½ hour at room temperature. Plates were washed four times after blocking with PBS containing 0.02% Tween 20.
(§2) Plates were washed 4 times with PBS containing 0.02% Tween 20.

EC50 [nM] | Binder
0.13 | B1
0.17 | B2
0.12 | B3
0.23 | B4

These binders were tested against T2, DLL4 ECD/His tag (R&D 1506-D4-050) (UniProt Q9NR61 27-529) (assay: direct bind ELISA, DLL4 on plate; DLL4 VD N-term.; HC Short, LC Short).
T2 construct: extracellular domain; Bought antigen coated on the ELISA plate; not shown: His tag

EC50 [nM] | Binder
0.17 | B5
0.39 | B6
0.54 | B7
0.2 | B8

The binders below were run against T3, VEGF (biotinylated VEGF; VEGF165) (UniProt P15692-4 27-191, biotinylated (sites not given)) (assay: competition ELISA: DVD-Ig pre-incubated with 2 nM biotinylated VEGF, then on coated VEGFR1 ECD-Fc (competitor VEGFR1-Fc)).
T3 construct: the method paragraph says only 'biotinylated VEGF'
T3 sequence (P15692 other isoform, or with tags, fused parts or gaps limits assumed): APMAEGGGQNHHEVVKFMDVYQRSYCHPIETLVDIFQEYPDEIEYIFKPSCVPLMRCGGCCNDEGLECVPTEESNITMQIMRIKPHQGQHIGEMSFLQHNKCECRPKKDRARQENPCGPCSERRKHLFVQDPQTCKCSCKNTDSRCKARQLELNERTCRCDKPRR

IC50 [nM] | Binder
5.46 | B9
2.4 | B10
2.7 | B11
1.7 | B12

What follows are binders tested against T4, human DLL4 on 293G-human DLL4 cells (human, UniProt Q9NR61 27-685) (assay: FACS: inhibition of Notch1 binding to 293G-human DLL4 cells (competitor Notch1)).
T4 construct: whole, on cells; no method paragraph describes this FACS assay

IC50 [nM] | Binder
4.1 | B9
15.1 | B10
38.3 | B11
16.3 | B12

These binders were tested against T5, human DLL4 extracellular domain (human, UniProt Q9NR61 27-529, biotin label in the Notch-1 competition ELISA (sites not given)) (assay: cell-based or functional assay).

DVD-Ig Inhibition of sFlt1 (IC50, nM) [nM] | Binder
1.92 | B9
1.68 | B10
1.02 | B11
1.11 | B12

Each binder was assayed against T5, human DLL4 extracellular domain (assay: competition ELISA: 14 nM biotin-labelled human DLL4 ECD pre-mixed with DVD-Ig, then on coated human Notch-1 (competitor Notch-1)).
Method: Plates were then washed once with wash buffer (PBS, 0.05% Tween 20) and blocked with 200 μl/well blocking buffer (D-PBS, 1% BSA, 1 mM CaCl₂, 0.05% Tween 20) for 1 hour at 25° C.

IC50 [nM] | Binder
2.66 | B9
4.9 | B10
2.82 | B11
2.65 | B12

These binders were tested against T6, DLL4 (human, UniProt Q9NR61 27-685) (assay: flow cytometry on 293G-human DLL4 cells; DLL4 VD C-terminal).
T6 construct: whole, on cells; also called human DLL4

EC50 [nM] | Binder
2.19 | B13
2.09 | B14

The binders below were run against T7, VEGF (UniProt P15692 27-191, limits assumed) (assay: direct bind ELISA, antigen on plate; C-terminal VD).
T7 construct: Bought antigen coated on the ELISA plate; also called vascular endothelial growth factor
T7 sequence (P15692 other isoform, or with tags, fused parts or gaps limits assumed): as above
Method: as §1, §2

EC50 [nM] | Binder
1170 | B1
31.1 | B2
1360 | B3
664 | B4
